The target in assay [1] is monomeric His-tagged human FcRn (JTA), produced in-house (human) (UniProt P55899). In words: SPR, IgG amine-coupled, monomeric His-hFcRn injected, pH 6.0; first of two values in the cell.
For assay [2] the target is unchanged. In words: SPR, IgG amine-coupled, monomeric His-hFcRn injected, pH 6.0; second value (steady-state affinity model by the footnote). In general terms: Surface plasmon resonance follows binding to a sensor surface in real time, without labels.
Assay [3] has the same target. Description: SPR, IgG amine-coupled, monomeric His-hFcRn injected, 1:1 Langmuir, pH 6.0.
For assay [4], the target named is T1, recombinant human FcRn (Sino Biological Inc. Cat. No. CT009-H08H) (human, UniProt P55899 24-297; P61769 21-119).
T1 construct: Bought protein; also called immobilized FcRn; hFcRn (SINO)
T1 sequence (P55899 24-297 limits assumed, chain 1 of 2): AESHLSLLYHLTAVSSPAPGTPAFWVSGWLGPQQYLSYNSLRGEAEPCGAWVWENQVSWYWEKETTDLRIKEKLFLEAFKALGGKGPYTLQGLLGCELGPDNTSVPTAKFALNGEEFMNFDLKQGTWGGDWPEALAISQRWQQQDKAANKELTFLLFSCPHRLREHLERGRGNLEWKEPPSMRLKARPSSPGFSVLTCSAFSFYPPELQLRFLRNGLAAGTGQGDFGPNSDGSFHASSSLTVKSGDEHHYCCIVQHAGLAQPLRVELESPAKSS
T1 sequence (P61769 21-119 limits assumed, chain 2 of 2): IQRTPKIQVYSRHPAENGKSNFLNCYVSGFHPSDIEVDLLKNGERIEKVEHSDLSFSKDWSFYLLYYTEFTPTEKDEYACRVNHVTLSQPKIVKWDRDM
Description: competition ELISA vs biotinylated human serum IgG, captured FcRn, pH 6.0. A general note: In an ELISA, binding on a coated surface is turned into a signal by an enzyme label.
Description: The following day, 0.5 μg/ml recombinant human FcRn (Sino Biological Inc. cat. no. CT009-H08H) diluted in PBS pH 7.4 was added to the wells and incubated for one hour at 37° C. After washing the plates 3× with PBST pH 7.4, the plates were blocked with PBSM pH 7.4 for one hour at 37° C. From this point onwards, all wash and incubation steps were performed at assay pH 6.0.

Assay [5] addresses T1, recombinant human FcRn (Sino Biological …). Description: competition ELISA vs biotinylated parent murine antibody, captured FcRn, pH 6.0.
Description: (§1) The following day, 1 μg/ml recombinant human FcRn (Sino Biological Inc. cat. no. CT009-H08H) diluted in PBS pH 7.4 was added to the wells and incubated for 1 hour at 37° C. After washing the plates 3× with PBST pH 7.4, the plates were blocked with PBSM pH 7.4 for 1 hour at 37° C. From this point onwards, all wash and incubation steps were performed at the chosen assay pH (pH 6.0 or 7.4).
(§2) Additional combinations of humanized affinity matured heavy chains and humanized affinity matured light chains were tested in the competition ELISA. Combinations of humanized affinity matured heavy chains and humanized non-affinity matured light chains also were tested.
Assay [6] shares this target. Description: competition ELISA vs biotinylated parent murine antibody, captured FcRn, pH 7.4.
Description: as §1, §2

Chain of monomeric His-tagged human FcRn (JTA), produced in-house (human) (P55899 24-297 limits assumed, chain 1 of 2): as the sequence (P55899 24-297 limits assumed, chain 1 of 2) above
Chain of monomeric His-tagged human FcRn (JTA), produced in-house (human) (P61769 21-119 limits assumed, chain 2 of 2, further chain): as the sequence (P61769 21-119 limits assumed, chain 2 of 2) above

Turning to human IgG4 (antibody), the Kd (in general, the constant that tells how readily two partners part at equilibrium) in assay [1] came out at 1010 nM; in assay [2], 970 nM.

As to human IgG1 (antibody), in assay [3], the koff (commonly the first-order rate constant of dissociation) is 0.0824 s⁻¹ and the on-rate constant (kon) (commonly the rate constant with which the complex forms) worked out at 108000 M⁻¹ s⁻¹. Further, in assay [1], the equilibrium dissociation constant (Kd) amounted to 763 nM. In assay [2], this molecule gave a dissociation constant Kd of 1250 nM.

B1: VH1_A8/Vκ1 IgG4 (antibody, V domains shown)
VH: QVQLVQSGAELKKPGASVKLSCKASGYTFTSYGISWVKQATGQGLEWIGEIYPRSGNTYYNEKFKGRATLTADKSTSTAYMELRSLKSEDSAVYFCARSTTVSPPAHWGTGTTVTVSS
VL: DIQMTQSPSYLSASVGDRVTITCKASDHINNWLAWYQQKPGQAPRLLISGATSLETGVPSRFSGSGTGKDYTLTISSLQTEDFATYYCQQYWSTPYTFGGGTKVEIK
notes: Human IgG4, kappa
Turning to B1, the “average relative IC50” value in assay [4] was 0.53 relative to parent murine antibody; in assay [5], 0.87 relative to chimeric parent murine antibody; in assay [6], 0.89 relative to chimeric parent murine antibody.

These data come from patent publication US20200207854A1 (SYNTIMMUNE, published 2020).
